Results taken from patent US8802630B2, “Method of treating brain injury” (Buddhist Tzu Chi General Hospital, priority 2011, dated 2014).
Where no end group is shown, it is not given here.

Settings: rat, in vivo

fluorescence-labeled UCN: UCN labeled with the Alexa Fluor 488 dye using Microscale Protein Labeling Kit (DNPSLSIDLTFHLLRTLLELARTQSQRERAEQNRIIFDSV; ends and bridges not checked; also: Alexa Fluor 488 label, site not given here; UniProt P55089 83-122, looked up)
penetration from lateral ventricle into striatal parenchyma: co-localized in cell nuclei of the striatum on the ipsilateral
